According to US11994512B2, “Single-cell genomic methods to generate ex vivo cell systems that recapitulate in vivo biology with improved fidelity” (Massachusetts Institute of Technology, priority 2018, dated 2024):

Test system: intracellular proteome of ENR+CD and ENR organoids
Experiment: LC-MS/MS TMT proteomics of ENR+CD versus ENR organoids
Format: cell-based, C57BL/6 mice
Details: for Average logFC: ENR+CD versus ENR organoids, sample pairs in aggregate (n=4, 2 technical replicates from two biological donors); for M1-1 Log2 Median Normalized / M1-2 Log2 Median Normalized / M2-1 Log2 Median Normalized / M2-2 Log2 Median Normalized: protein abundance ratio ENR+CD versus ENR organoids, LC-MS/MS TMT proteomics; for M1-1 Log2 Median Normalized: sample pair M1-1; for M1-2 Log2 Median Normalized: sample pair M1-2; for M2-1 Log2 Median Normalized: sample pair M2-1; for M2-2 Log2 Median Normalized: sample pair M2-2; for change: up = enriched in ENR+CD, down = enriched in ENR, FDR<0.05 and log fold change cut-off

Molecule | Average logFC | M1-1 Log2 Median Normalized | M1-2 Log2 Median Normalized | M2-1 Log2 Median Normalized | M2-2 Log2 Median Normalized | change
Q8CAB8 (protein, UniProt Q8CAB8 1-329, looked up, full-length) MELHILEHRLQVASVAKESIPLFTYGLIKLAFLSSKTRCKFFSLTETPEDYTIIVDEEGFLELPSSEHLSVADATWLALNVVSGGGSFSSSQPIGVTKIAKSVIAPLADQNISVFMLSTYQTDFILVRERDLPFVTHTLSSEFTILRVVNGETVAAENLSFTNGFVKPKMVQRPVIHPLSSPSNRFCVTSLDPDTLPAVATLLMDVMFYSNGVKDPMAASDDCGHIRFFSFSLIEGYISLVMDVQTQQRFPSHLLFTSASGELWKMVRIGGQPLGFDECGIVAQISEPLAAADIPAYYISTFKFDHALVPEENISGVIHALKVSQAGKH | 1.494 | 1.555 | 0.678 | 1.5715 | 1.494 | up
Q8CFC7 (protein, UniProt Q8CFC7 1-668, looked up, full-length) MWHEARKHERKLRGMMVDYKKRAERRREYYEKIKKDPAQFLQVHGRACKVHLDSAVALAAESPVNMMPWQGDTNNMIDRFDVRAHLDHIPDYTPPLLTTISPEQESDERKCNYERYRGLVQNDFAGISEEQCLYQIYIDELYGGLQRPSEDEKKKLAEKKASIGYTYEDSTVAEVEKVAEKPEEEESPAEEESNSDEDEVIPDIDVEVDVDELNQEQVADLNKQATTYGMADGDFVRMLRKDKEEAEAIKHAKALEEEKAMYSGRRSRRQRREFREKRLRGRKISPPSYARRDSPTYDPYKRSPSESSSESRSRSRSPSPGREEKITFITSFGGSDEEAAAAAAAAAASGAAPGKPPAPPQTGGPAPGRNASTRRRSSSSSASRTSSSRSSSRSSSRSRRGYYRSGRHARSRSRSWSRSRSRSRRYSRSRSRGRRHSDGGSRDGHRYSRSPARRGGYVPRRRSRSRSRSGDRYKRGARGPRHHSSSHSRSSWSLSPSRSRSVTRSGSRSQSRSRSRSQSHSQSQSHSPSPPREKLTRPAASPAVGEKLKKTEPAAGKETGAAKPKLTPQERLKLRMQKALNRQFKADKKAAQEKMIQQEHERQEREDELRAMARKIRMKERERREKEREEWERQYSRQSRSPSPRYSREYSSSRRRSRSRSRSPHYRH | −1.139 | −1.219 | −0.633 | −0.8625 | −1.84 | down
Q8CGK7 (protein, UniProt Q8CGK7 1-381, looked up, full-length) MGCLGNSSKTAEDQGVDEKERREANKKIEKQLQKERLAYKATHRLLLLGAGESGKSTIVKQMRILHVNGFNPEEKKQKILDIRKNVKDAIVTIVSAMSTIIPPVPLANPENQFRSDYIKSIAPITDFEYSQEFFDHVKKLWDDEGVKACFERSNEYQLIDCAQYFLERIDSVSLVDYTPTDQDLLRCRVLTSGIFETRFQVDKVNFHMFDVGGQRDERRKWIQCFNDVTAIIYVAACSSYNMVIREDNNTNRLRESLDLFESIWNNRWLRTISIILFLNKQDMLAEKVLAGKSKIEDYFPEYANYTVPEDATPDAGEDPKVTRAKFFIRDLFLRISTATGDGKHYCYPHFTCAVDTENIRRVFNDCRDIIQRMHLKQYELL | −1.357 | −1.028 | −1.1 | −1.4805 | −1.82 | down
Q8CIV3 (protein, UniProt Q8CIV3 1-451, looked up, full-length) MLRLCFFISFMCLVKSDTDETCPSFTRLSFHSAVVGTGLSVRLMLYTQRDQTCAQIINSTALGSLNVTKKTTFIIHGFRPTGSPPVWIEELVQSLISVQEMNVVVVDWNRGATTVIYPHASSKTRQVASILKEFIDQMLVKGASLDNIYMIGVSLGAHIAGFVGESYEGKLGRVTGLDPAGPLFNGRPPEERLDPSDALFVDVIHSDTDALGYKEALGHIDFYPNGGLDQPGCPKTIFGGIKYFKCDHQMSVYLYLASLQNNCSITAYPCDSYRDYRNGKCVSCGAGQIVPCPRVGYYADSWKEYLWDRDPPMTKAFFDTAETKPYCMYHYFVDIVSWNKSVRRGFITIKLRGEDGNITESKIDHEPSAFEKYHQVSLLARFNRDLDKVAEISLLFSTGSVVGPKYKLRVLQMKLRSLAHPDRPHLCRYDLVLMENVETSFQPILCSQQQM | 1.179 | 1.6 | 0.988 | 0.9025 | 1.225 | up
Q8K023 (protein, UniProt Q8K023 1-323, looked up, full-length) MNSKIQKIELNDGHSIPVLGFGTYATEEHLKKKSMESTKIAIDVGFCHIDCSHLYQNEEEIGQAILSKIEDGTVKREDIFYTSKLWSTSHRPELVRPSLENSLRKLNLDYVDLYLIHFPVSLKPGNELLPKDEHGNLIFDTVDLCDTWEAMEKCKDAGLAKSIGVSNFNRRQLEMILNKPGLKYKPVCNQVECHLYLNQSKLLAYCKMNDIVLVAYGALGTQRYKYCINEDTPVLLDDPVLCAMAKKYKRTPALIALRYQLDRGIVALAKSFNEERIRENMQVFDFQLASDDMKILDGLDRNLRYFPADMFKAHPNFPFFDEY | −1.451 | −1.063 | −0.99 | −1.9945 | −1.758 | down
Q8K354 (protein, UniProt Q8K354 1-277, looked up, full-length) MSSCSRVALVTGANKGIGFAITRDLCRKFSGDVVLTARDEARGRAAVQQLQAEGLSPRFHQLDIDDPQSIRALRDFLRKEYGGLNVLVNNAGIAFRMDDPTPFDIQAEVTLKTNFFATRNVCTELLPIMKPHGRVVNISSLQGLKALENCREDLQEKFRCDTLTEVDLVDLMKKFVEDTKNEVHEREGWPDSAYGVSKLGVTVLTRILARQLDEKRKADRILLNACCPGWVKTDMARDQGSRTVEEGAETPVYLALLPPDATEPHGQLVRDKVVQTW | −1.221 | −1.154 | −1.435 | −1.8555 | −0.441 | down
Q8K4B2 (protein, UniProt Q8K4B2 1-609, looked up, full-length) MAGRCGARGALSPQLLLFDLPPALLGELCGILDSCDGPLGWRGLAERLSNSWLDVRHIEKYVNQGKSGTRELLWSWAQKNKTIGDLLEVLQDMGHQRAIHLIINYGVSWTPSVQTHHELPFPSFPPEVKHACRENDPGPLEPANVTVDNVLVPEHNEKGTLQKTPISFQSILEGTKHFHKDFLIGEGEIFEVYRVDIRNQAYAVKLFKQEKKMQLKKHWKRFLSELEVLLLFRHPHILELAAYFTETEKLCLVYPYMSNGTLFDRLQCTNGTTPLSWHVRISVLIGIAKAIQYLHNTQPCAVICGNVSSANILLDDQLQPKLTDFAAAHFRPNLEQQSSTINMTGGGRKHLWYMPEEYIRQGRLSVKTDVYSFGIVIMEVLTGCKVVLDDPKHVQLRDLLMELMEKRGLDSCLSFLDRKIPPCPRNFSAKLFSLAGRCVATKAKLRPTMDEVLSSLESTQPSLYFAEDPPTSLKSFRCPSPLFLDNVPSIPVEDDENQNNHSVPPKEVLGTDRVTQKTPFECSQSEVTFLGLDRNRGNRGSEADCNVPSSSHEECWSPELVAPSQDLSPTVISLGSSWEVPGHSYGSKPMEKRCSSGLFCSEHEQSKKQ | 1.198 | 1.448 | 0.943 | 1.1955 | 1.204 | up
Q8K4R4 (protein, UniProt Q8K4R4 1-332, looked up, full-length) MLLKEYRICMPLTVDEYKIGQLYMISKHSHEQSDRGEGVEVVQNEPFEDPHHGNGQFTEKRVYLNSKLPSWARAVVPKIFYVTEKAWNYYPYTITEYTCSFLPKFSIHIETKYEDNKGSNDSIFDSEAKDLEREVCFIDIACDEIPERYYKESEDPKHFKSEKTGRGQLREGWRDNHQPIMCSYKLVTVKFEVWGLQTRVEQFVHKVVRDILLIGHRQAFAWVDEWYDMTMDEVREFERATQEATNKKIGVFPPAISISSIALLPSSVRSAPSSAPSTPLSTDAPEFLSIPKDRPRKKSAPETLTLPDPEKKATLNLPGVYTSEKPCRPKSE | 1.235 | 1.072 | 0.913 | 1.6335 | 1.321 | up
Q8R550 (protein, UniProt Q8R550 1-709, looked up, full-length) MVEAIVEFDYQAQHDDELTISVGEVITNIRKEDGGWWEGQINGRRGLFPDNFVREIKKDMKKDLLSNKAPEKPMHDVSSGNALLSSETILRTNKRGERRRRRCQVAFSYLPQNDDELELKVGDIIEVVGEVEEGWWEGVLNGKTGMFPSNFIKELSGESDELGISQDEQLSKSRPEGFLPASLLPFPAHGAKGKTTFEGTILYRAAPGKTEGHRRYYSLRETTGSESDGGDSSSTKSEGANGTMATAAIQPKKVKGVGFGDIFKDKPIKLRPRSIEVENDFLPVEKTIGKKLPPATSTPDPSKTEMDSRTKTKDYCKVIFPYEAQNDDELTIKEGDIVTLINKDCIDVGWWEGELNGRRGVFPDNFVKLLPSDFDKEGNRPKKPPPPSAPVVKQGAGTTERKHEIKKIPPERPETLPNRTEEKERPEREPKLDLQKPSVPAIPPKKPRPPKTNSLNRPGALPPRRPERPVGPLTHTRGDSPKIDLAGSALSGILDKDLSDRSNDIDLEGFDSVISSTEKLSHPTTSRPKATGRRPPSQSLTSSSLSSPDIFDSPSPEEDKEEHISLAHRGIDVSKKTSKTVTISQVSDNKTSLPPKPGTMAAASSGPASLSSVASSPMSSSLGTAGQRASSPSLFSTEGKPKMEPAVSSQAAIEELKMQVRELRTIIETMKDQQKREIKQLLSELDEEKKIRLRLQMEVNDIKKALQSK | 1.492 | 1.738 | 1.082 | 1.8435 | 1.303 | up
